Experimental findings from article PMC9508855 are described below.

The target of data set [1] is T1, FnCas12a ΔBH (Francisella novicida, UniProt A0Q7Q2 1-1300, del953-969). Briefly: EMSA. In general terms: In EMSA bound probe runs differently from free probe, usually more slowly.
The target in data set [2] is T2, FnCas12a Δh1 (Francisella novicida, UniProt A0Q7Q2 1-1300, del972-1000). Briefly: EMSA.
Data set [3] addresses T3, FnCas12a ΔBH/Δh1 (Francisella novicida, UniProt A0Q7Q2 1-1300, del953-1000). The data set is described as follows: EMSA.
A further data set has as its target FnCas12a WT (Francisella novicida, UniProt A0Q7Q2 1-1300). Briefly: mass photometry.
For data set [4], the target named is T1, FnCas12a ΔBH. Briefly: EMSA. The source holds these as a separate data set.
Data set [5] deals with T2, FnCas12a Δh1. Briefly: EMSA. This is another data set of the same source.
For data set [6], the target named is T3, FnCas12a ΔBH/Δh1. Briefly: EMSA. This is another data set of the same source.
A further data set has as its target FnCas12a ΔΔBH (Francisella novicida, UniProt A0Q7Q2 1-1300, del953-971). Briefly: EMSA.

For the molecule AAUUUCUACUGUUGUAGAUGUGAUAAGUGGAAUGCCAUGUGGG (structured_RNA) [crRNA-Cy5 (43 nt)], the results for the binding signal in the data set with FnCas12a ΔBH [1], with FnCas12a Δh1 [2] and with FnCas12a ΔBH/Δh1 [3] were ~50 % of WT, 10.7 % of WT and 22.9 % of WT, respectively.

As to AAUUUCUACUGUUGUAGAUGUGAUAAGUGGAAUGCCAUGUGGG (structured_RNA) [crRNA (43 nt)], the binding result with FnCas12a WT is on record as “binds”.

B1: crRNA + 58 bp target DNA MM 0 (labeled) (mixed)
RNA: AAUUUCUACUGUUGUAGAUGUGAUAAGUGGAAUGCCAUGUGGG
DNA 1: ACTCAATTTTGACAGCCCACATGGCATTCCACTTATCACTAAAGGCATCCTTCCACGT
DNA 2: ACGTGGAAGGATGCCTTTAGTGATAAGTGGAATGCCATGTGGGCTGTCAAAATTGAGT
Turning to B1, the binding result in the data set with FnCas12a ΔBH [4] is listed as “binds”; with FnCas12a Δh1 [5], “no binding”; with FnCas12a ΔBH/Δh1 [6], “no binding”; with FnCas12a ΔΔBH, “no binding”.
